Experimental data taken from patent publication US20050153376A1 (AUCKLAND UNISERVICES, published 2005).
Like-named read-outs stand apart in the source and are kept apart here.

Tests used:
[1] = biological target: MHC class II (HLA-DR1) on human LG-2 cells (human); test: Scatchard analysis, 125I-labelled toxin on LG-2 cells
[2] = biological target: MHC class II (HLA-DR1) on human LG-2 cells (human); test: Scatchard analysis, 125I-labelled toxin on LG-2 cells; high affinity site
[3] = biological target: MHC class II (HLA-DR1) on human LG-2 cells (human); test: Scatchard analysis, 125I-labelled toxin on LG-2 cells; low affinity site
[4] = biological target: MHC class II (HLA-DR1) on human LG-2 cells (human)

B1: recombinant SEB (other)
chain: ESQPDPKPDELHKSSKFTGLMENMKVLYDDNHVSAINVKSIDQFLYFDLIYSIKDTKLGNYDNVRVEFKNKDLADKYKDKYVDVFGANYYYQCYFSKKTNDINSHQTDKRKTCMYGGVTEHNGNQLDKYRSITVRVFEDGKNLLSFDVQTNKKKVTAQELDYLTRHYLVKNKKLYEFNNSPYETGYIKFIENENSFWYDMMPAPGDKFDQSKYLMMYNDNKMVDSKDVKIEVYLTTKKK
Kd [1]: 340 nM

B2: recombinant TSST (other)
chain: STNDNIKDLLDWYSSGSDTFTNSEVLDNSLGSMRIKNTDGSISLIIFPSPYYSPAFTKGEKVDLNTKRTKKSQHTSEGTYIHFQISGVTNTEKLPTPIELPLKVKVHGKDSPLKYGPKFDKKQLAISTLDFEIRHQLTQIHGLYRSSDKTGGYWKITMNDGSTYQSDLSKKFEYNTEKPPINIDEIKTIEAEIN
Kd [1]: 130 nM

B3: recombinant SEA (other)
chain: SEKSEEINEKDLRKKSELQGTALGNLKQIYYYNEKAKTENKESHDQFLQHTILFKGFFTDHSWYNDLLVDFDSKDIVDKYKGKKVDLYGAYYGYQCAGGTPNKTACMYGGVTLHDNNRLTEEKKVPINLWLDGKQNTVPLETVKTNKKNVTVQELDLQARRYLQEKYNLYNSDVFDGKVQRGLIVFHTSTEPSVNYDLFGAQGQYSNTLLRIYRDNKTINSENMHIDIYLYTS
Kd [2]: 36 nM | Kd [3]: 1000 nM

B4: recombinant SPE-G superantigen (mature) (other)
chain: DENLKDLKRSLRFAYNITPCDYENVEIAFVTTNSIHINTKQKRSECILYVDSIVSLGITDQFIKGDKVDVFGLPYNFSPPYVDNIYGGIVKHSNQGNKSLQFVGILNQDGKETYLPSEAVRIKKKQFTLQEFDFKIRKFLMEKYNIYDSESRYTSGSLFLATKDSKHYEVDLFNKDDKLLSRDSFFKRYKDNKIFNSEEISHFDIYLKTH
Kd [4]: 15 to 65 nM | Kd [2]: 16 nM | Kd [3]: 1000 nM
